Substitutions are numbered along the chain they refer to.
B1: CL-510640 (antibody, V domains shown)
VH: QVQLVESGGGVVQPGRSLRLSCAASGFTFSNYGMHWVRQAPVKGLEWVAIIWYDGSNKFYADSVRGRFIISRDNSKNTLYLQMNSLRAEDTAVYFCARAREGQNSDYYGSETSYTFDSWGLGTLVTVSS
VL: DIQMTQSPSTLSASVGDRVTITCRASQSISSWLAWYQQKPGKAPKFLIYKASSLESGVPSRFSGSGSGTEFTLTISSLQPDDFATYYCQQYKSYWTFGQGTKVEIK
B2: CL-510700 (antibody, V domains shown)
VH: QVQLVESGGGVVQPGRSLRLSCAASGFTFSDFGMHWVRQTPGKGLEWVAIIWYDGSNKFYADSVKGRFTISRDNSKNTLFLQMNSLRAEDTAVYYCARSGVYYGSGSHFDYWGQGTLVTVSS
VL: B1 VL with Q38L, F46L, S53N, S56T, S60L, K92N, W95L
B3: CL-511026 (antibody, V domains shown)
VH: QVQLVESGGGVVQPGRSLRLSCAASGFTFSNFGMHWVRQAPDRGLEWVSIIWYDGSNKFYADSVKGRFTISRDNSKNTLFLQMDSLRAEDTAVYYCAKAEMRTSDYYNYGMDVWGQGTTVTVSS
VL: B1 VL with F46L, G68A, S76R, K92Y, K106N
B4: CL-511073 (antibody, V domains shown)
VH: QVQLVESGGGVVQPGRSLRLSCAASGFSFSSHGMHWVRQAPGKGLEWVSIIWYDGSNKFYADSVKGRFTISRDNSKNTLYLQMNSLRAEDTAVYYCARDGYDVLTGHYNWFDPWGQGTLVTVSS
VL: EIVMTQSPATLSVSPGERATLSCRASQSVSSKLAWYQQKPGQAPRLLIYGASTRATGIPARFSGSGSGTDFTLTISSLQSEDFAVYYCQQYNNWWTFGHGTKVEIK
B5: CL-511296 (antibody, V domains shown)
VH: QVQLVASGGGVVQPGRSQRLSCAASGFTFSNYGMHWVRQSPGRGLEWVAIIWYDGSNKFYADSVKGRFTISRDNSRNTLFLQMNSLRAEDTAIYYCAKSEERTSDNYFKYGMDVWGQGTTVIVST
VL: B1 VL with F46L, S53N, T74S, S77N, Y87F, K92T
B6: CL-511771 (antibody, V domains shown)
VH: QVQLVESGGGVVQPGRSLRLSCAASGFTFSNSGMHWVRQAPGKGLEWVAIIWYDGSNKYYAESMKGRFTISRDNSKNTLYLQMNSLRAEDTAVYYCARDGTTNAFDLWGQGTMVTVSP
VL: not shown
B7: CL-511776 (antibody, V domains shown)
VH: QVQLVESGGGVVQPGRSLTLSCAASGFTFSNFGMHWVRQAPGKGLEWMAVIWYDGNNEFYADSVKGRFTISRDNSKNMLYLHMNSLRAEDTAIYYCAREGDYSASGSHWLFDPWGQGTQVTVSS
VL: DIQMTQSPSTLSASVGDSITITCRASQSINIWLAWYQQKPGKAPNLLIYKASSLESGVPSRFSGSGSGTEFTLTINSLQPDDFATYYCQQYNNYVTFGGGTKVEIK
B8: CL-511862 (antibody, V domains shown)
VH: QVQLVESGGGVVQPGKSLRLSCAASGFSFSSSGMHWVRQAPDKGLEWVAIIWYDGSHKFYADSVKGRFTISRDNSDNTLFLQMDSLRAEDTAVYYCVRAYPTSYNGNYDKYGMDVWGQGTTVTVSS
VL: B1 VL with T22A, S31T, F46L, S53T, Y91F, K92T, S93F
B9: CL-511905 (antibody, V domains shown)
VH: QVQLVESGGGVVQPGRSLRLSCAASGFTFSGSGMHWVRQAPGRGLEWVAIIWYDGSHKYYVDSVQGRFIISRDNSKNTLYLEMNSLRVEDTAVYYCVRAYPSGSSNDKYGMDVWGQGTTVTVSS
VL: not shown

Target: recombinant full-length PfCSP (Plasmodium falciparum circumsporozoite protein, strain NF54) (Plasmodium falciparum NF54, UniProt P19597)
Sequence (P19597 20-375): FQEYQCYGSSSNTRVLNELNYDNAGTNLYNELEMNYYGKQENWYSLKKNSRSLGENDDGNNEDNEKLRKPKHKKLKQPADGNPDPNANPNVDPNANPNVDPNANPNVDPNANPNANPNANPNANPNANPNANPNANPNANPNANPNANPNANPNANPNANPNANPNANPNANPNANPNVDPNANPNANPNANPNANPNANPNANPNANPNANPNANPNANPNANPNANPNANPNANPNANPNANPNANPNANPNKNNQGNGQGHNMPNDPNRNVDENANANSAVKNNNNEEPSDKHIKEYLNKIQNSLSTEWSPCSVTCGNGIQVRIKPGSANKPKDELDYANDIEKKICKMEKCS

| Binder | binding result |
| --- | --- |
| B1 | binds |
| B2 | binds |
| B3 | binds |
| B4 | binds |
| B5 | binds |
| B6 | binds |
| B7 | binds |
| B8 | binds |
| B9 | binds |
